The series is described as follows: soluble on expression in E. coli; label from the status in PepcDB or PDB records.
For “MELDGKAPSHRNLNVQTWSTAEGAKVLFVEARELPMFDLRLIFAAGSSQDGNAPGVALLTNAMLNEGVAGKDVGAIAQGFEGLGADFGNGAYKDMAVASLRSLSAVDKREPALKLFAEVVGKPTFPADSLARIKNQMLAGFEYQKQNPGKLASLELMKRLYGTHPYAHASDGDAKSIPPITLAQLKAFHAKAYAAGNVVIALVGDLSRSDAEAIAAQVSAALPKGPALAKIEQPAEPKASIGHIEFPSSQTSLMLAQLGIDRDDPDYAAVSLGNQILGGGGFGTRLMSEVREKRGLTYGVYSGFTPMQARGPFMINLQTRAEMSEGTLKLVQDVFAEYLKNGPTQKELDDAKRELAGSFPLSTASNADIVGQLGAMGFYNLPLSYLEDFMRQSQELTVEQVKAAMNKHLNVDKMVIVSAGPTVAQKPLEHHHHHH”, the “soluble on expression in E. coli” value is recorded as “soluble”.
For “MELKARAVGVEIIPKGKIIYYSVPNGDEYERGDLVLVLGDFGLEVGKVLIPPREVVIDEVGYELKAVIRKLTDEDLEQYRKNVEDALKAFQICKQKIKEHGLPMKLLYAKYTFDRTRLIFFFSAEGRVDFRELVRDLAKIFKTRIELRQVGVRDEMKFFGGLGLCGLPTCCSTFLREFTSVTLKHAKKQQMMINPAKISGPCRRLLCCLTYEYDFYEKELEGIPDEGSTITYEGKRYKVVNVNVFLRTVTLFSEQEGEMIKLPFDYFRKGE”, the “soluble on expression in E. coli” value is given as “soluble”.
The result for “MELTMAKELIFIDWDDTLVNRENAEDFESVTDENNTIYQMSPMFIGAVEALKQLQEKYHVVIVSSRGDLNRLRQLQLQSYDLESSIMPLENFTFEDNDNRLLFTRYGETNFPDKASFILYIQKMSGNKIKVFIDDDHTEIEAAQSKGIPTIHATHNKYLQNTEQFFSGLIHQVDNMELSHIFNKVAAEIRNNSRSISWGRQIAGFFSVHLPIAQSLENLASKLQRKSANEVSEEFDQYLKKIAYDPNKKGDIAVSLTKAKTAIDKHISAPIEIKEDQPFLNRMI” reads “not soluble”; that for “MEMSLEEFKTMFKTVMKKEFEDELHRITEPGKSKMAIERYIQGINLLDKKCILDNDENHNVLFKFAPIDQDFAHSSTNLSTPSPLEEESARENNHEAQELDITERIARMNLIGGSEFQMQYSSFLTAVSTKPSTDASLKKEARRLAEIWWAKNLRFFPQTMYVLQKLDQKNPDGFNYTDFEEEVQKVIPRSWIQNHHSFTLLSLLNEESLYVKFNLIMPSDSENMNRVKVNQVIKFLGFHEIGDCEFSMIYQYVSSKSASESTYSIHKFMCEDFPGWETQYNNEKKSMDRIFEIIIQEQKLFWTEYDYHTYKRHAYKIAVPMVFSLNIVDKAVGVRSDAR”, “not soluble”; that for “MENFAVIDLGSNSCRMTITQIQEDGSYAVTHRLKEMVRLSENENATDTPTLQAEAIDRTIAALKSFAAVYKDLPNLTIKAVATAATRKASNQKKFLKRVKNDVGLDIEVIPGTTEAYYDYLGVVNTLPTTNCVMVDTGGGSCELVLIVNGQAKDLISLPIGAVSLSEKFGLNDQVTASQLFKTMTFVDKIFNSVWWLRNGLNLPLVCLGGSNRTLAKINRRKCNILNFEDIHGYRLRDNAIYDTFNTVISQDAAGRAAIPGLAKDRADIIVGGMIPAISLMRFLDSDRMIFSQNGLREGILFEHLTALAEQSAKVSELEHHHHHH”, “not soluble”.
In the case of “MENKEVIIIGAGAAGVGMGVALKDFGINNFAILERKQVGNSFIKWPEQTRFITPSFTSNGFGMPDLNAIAIDTSPSYTLGEERLSGKDYAKYLQLVSEEYKLPIKTNCKVQSIKKEKTGYLLETTKGFIYAEYVIFAMGEFSFPNKSSIKGAYKNSLHYGEINSWIEIKGDKQTIIGGNESAIDAAIELAKLGKRVTIYTDTLGLNIRDADPSKRLAPRTRQRFFDLRVNQKKLDSIKIYTTTKVKKIEKKSTSYILITENGKSLPVENIPILCTGFKNGTKSITASLFKYKENGEVLLNDFDESTIAKNIFLTGPNVRKGNTIFCYIYKFRQRFAVIANEIARRKHITIDEKKLSYYKNQSFYLDGCSGCEVRCSCLEHHHHHH”, the “soluble on expression in E. coli” value was “soluble”.
The result for “MENKHNPTSHTSHTWSELPELNPCVPLGTLLPDKSCPKTHPLADLIPPRQQQQFMHGNSWKLAPYGRSMIMRYAMQVRGQLAPTVLGINRTWKGDTCWNQIPKTSDCFHMVYKDHKLYFLNKTGSFKIFDFCGDIPQQTFEWSVKVERSQFGPPPPSNPWKVLATKLVVTVTGKVLKVEEMGGARPRTWSFRVFESMLLDQGITVLANDTGGFIRNTIYFSASHGNNTHDIYIFNLETQKTEPLHTLDSYSSSVQFYGAQWFVPSFKH” reads “soluble”; that for “MENKSPMKGSEAENAKDQLKKKTAEEFAQMAIINRAFSAESTEDPPPLAQKRSESTLKPLNDELKSVPLVRAFNSAENQLDPKNQNAAKK”, “not soluble”; that for “MENQPKLNSSKEVIAFLAERFPHCFSAEGEARPLKIGIFQDLVERVGGEMNLSKTQLRSALRLYTSSWRYLYGVKPGATRVDLDGNPCGELEEQHVEHARKQLEEAKARVQAQRAEQQAKKREAAAAAGEKEDAPRRERKPRPVARRKEGAERKPRADKPTTKAPRAPREEKHTPVSDISVLTVGQSLKVKAGNNAMDATVLEITKDGVRVQLNSGMSLIVRAEHLVF”, “not soluble”.
Turning to “MENRKLAVLIDADNAQSSLIAELLAEVAKYGTAIVKRAYGDWTTTQLKGWKEVLHQYAISPIQQFAYTKGKNSTDSALIIDAMDLLYTGNFDGFCLVSSDSDFTRLATRLREGGLTVIGLGEQSKTPRPFIAACDKFVFTEILRPAPPAKPKPETAATADKPKARSSRTRAKAAPHKEKHPLQDMFTSAIEAVARDSGWAELSAVGSYLAKNDPSFDPRNWGHGRLSQMVKKLDFLTVQESRNGSKLHSEIRLRHDGEAAVAEPAAPVETPQPSPSEEAAPPPRKKRSPRKKISPAGLEHHHHHH”, the “soluble on expression in E. coli” value is “soluble”.
The result for “MEPAAGFLSPRPFQRAAAAPAPPAGPGPPPSALRGPELEMLAGLPTSDPGRLITDPRSGRTYLKGRLLGKGGFARCYEATDTETGSAYAVKVIPQSRVAKPHQREKILNEIELHRDLQHRHIVRFSHHFEDADNIYIFLELCSRKSLAHIWKARHTLLEPEVRYYLRQILSGLKYLHQRGILHRDLKLGNFFITENMELKVGDFGLAARLEPPEQRKKTICGTPNYVAPEVLLRQGHGPEADVWSLGCVMYTLLCGSPPFETADLKETYRCIKQVHYTLPASLSLPARQLLAAILRASPRDRPSIDQILRHDFFTKGYTPDRLPISSCVTVPDLTPPNPARSLFAKVTKSLFGRKKKSKNHAQERDEVSGLVSGLMRTSVGHQDARPEAPAASGPAPVSLVETAPEDSSPRGTLASSGDGFEEGLTVATVVESALCALRNCIAFMPPAEQNPAPLAQPEPLVWVSKWVDYSNKFGFGYQLSSRRVAVLFNNGTHMALSANRKTVHYNPTSTKHFSFSVGAVPRALQPQLGILRYFASYMEQHLMKGGDLPSVEEVEVPAPPLLLQWVKTDQALLMLFSDGTVQVNFYGDHTKLILSGWEPLLVTFVARNRSACTYLASHLRQLGCSPDLRQRLRYALRLLRDRSPA” reads “soluble”; that for “MEPDIEPWDRFRDWLHCICVVTFDLELGQALEVIYPGDAILSNTEKINICYLAFPDSNSSNARDTNFHFRIRRAISDVRDCQKSFVDKSPTSLPFDTHYLYGFVHFRQCKDPTIHRGYYQKSIVLMSVLPLFSLFYSVTARIAEHFFESGEAAIEAACHHIDTWQQPHAGRTIELPLLGTLISCRLPAACDLPYEFRLDGHVELSDDDSQRLVRPDFTTSIVQHVHHLPLLWELVLLGEPLLIVAPTPSITSALVQSIVGLLSPLRIVNDFRPYFTIHDSEFREYSSKSRSPPRVILGVTNPFFIKALDHWPHILKVAEQGAEIGGDDMKKPKKTWSSSRTLDTPAGLYTQYKPFLSKDKSLAKKLLRSGNSLEVQHNILQRHFLELTHSFMIPMERYLSSLMPLKKEMSPFKGIPSTRPFSMDDFLATLETNGGPSLTCGTKGDWQGLYRRFITCSNFGGWLSMRSRDVNAQLKTHYVEALCSADFCSQTLATKHNVEIVDLVLRIRERIIECPPDTEIRRNLVRQVVKILSNVDDDLKQLLMSNCSLREILA”, “not soluble”; that for “MEPDLKNVKNAGTGESNKDEIKNTNASRRSGRKVKTIIEEDPNINKKMELPPTLMPKFPSQKIIKQQKSPDKNEPPPARPVEQTEENEENNADEKEKHEIFWQEGVIEECQGREDEGEVPKEQEEHAHVSPDPTSLNDKKSKFEKPNLEPGKPEKPEKLDKPLAKPLPPPSAAPPPVAPLSAPVPSTGAPPSAVPPADKKMSKQSTRDKKSGRSTDRNIHKKKDVAALDENKKSPEDKKKDAGTKKGSTEDASTDNLNNGKVQSRRKSKRQKKSIFQQPVQRTPGSHPSAYLQPTRARTERSLKLPPAEPKSVDERPRKPSTQILQPQQPNRGGQVQKQPSKVVLQPGAPGATPVASTPNQREQAQQQQQQQQKGPMGLFKKIYRKMNFRAASDCTVEPTKEMLAKSYVRPEHNSNDPIDFCPDLPKKLFDEEAWKLRMTNKGANRNEVFLNNRPFWLTRDGTEQIPKVRIQLHRPLKQMHSGNPASIQLKLQRTDPFLDPKEDTLERLKIVDKAIGVDPLDLTKDRELKRVCANTFHGTLMFEVDKRQYDTQQKKAEAEALKLDPKRKNDGKEKDQKSSFEDPKKVAFNVSDKCTLHVYFRKHRPLTNQGKSERFTEKKYTMGERKIMKKGEKPAVPQLVPPTSSSTTSASSSSCRETKKL”, “not soluble”.
For “MEPPLWVFGYGSLIWDPGFPVARSVIARLDGWHRSFCMHSIHYRGTATDPGLVLALDAAPGGACLGVGFQVTPGAEAETLAALRKRELISNAYLERWLPVTLATGETVEAVSYVIDPDHGQYCGGLDLEAQAQIIARAAGERGPNRDYLLHTVAHLQSLGISDPDLCWLATRVRALGNDPVSAAALEHHHHHH”, the “soluble on expression in E. coli” value is on record as “not soluble”.
The result for “MEQAPPDPEKLLQPGPLEPLGGPGAVLEAAVGEENEGTREDGSGVDTMTGNNFWLKKIEISVSEAEKRTGRNAVNMQETYTAYLIETRSVEHADGQSVLTDSLWRRYSEFELLRNYLLVYYPHVVVPPLPEKRAEFVWHKLSADNMDPDFVERRRVGLENFLLRVASHPVLCRDKIFYSFLTQEGNWKETVNETGFQLKADSRLKALNATFRVKNPDKRFTELRHYSDELQSVISHLLRVRARVADRLYGVYKVHGNYGRVFSEWSAIEKEMGDGLQSAGHHMDVYASSIDDILEDEEHYADQLKEYLFYAEALRAVCRKHELMQYDLETAAQDLAAKKQQCEELATGTVRTFSLKGMTTKLFGQETPEQREARIKVLEEQINEGEQQLKSKNLEGREFVKNAWADIERFKEQKNRDLKEALISYAVMQISMCKKGIQVWTNAKECFSKM” reads “soluble”; that for “MEQEQRGMAALLSKFRIDYSDVYVIADIGKKPRQETMNTWQSVIDPFIAQDGSCPIGMTTKSELSAQRDKTYRQLRAGELLNEHSINADLIVMTLPVPRKGMVSSSLYMSWLEVMTRNLPPVLLVRGNQQSVNTSSSSTASSPHHLIIPALAINPHLKVFPSHISLKCFFFFRFLLKAYAAAVHPPSRFLCYMKKVTDSIFVSLMNNSRLYCLL”, “not soluble”.
The result for “MEQHVIEFLTTTLDDLKAQDILAIDVRGKSSITDTMIIATGTSVRHVASTAERLITEAKKAGVQVLGEEGRAVADWVVVDFGQAIVHLLQADARELYQLEKLWRLEHHHHHH” reads “not soluble”.
The result for “MEQLTKNQRKKRDEIEAGKSYCSRRFGGATCDDKSAQIYARFDKNDWRIQPAEFYRFHDAEVNTFGYF” reads “soluble”; that for “MEQLYPAPIKTVEEGSPAARAGVRPGDVLLRVNGQPVTDVLAYRHQLERGVVTLEVARPHEAPRVMTGVLEHHHHHH”, “not soluble”.

The record behind these values is the DeepSol protein solubility set.
